The target of experiment [1] is T1, His-HPV16E7融合蛋白 (human papillomavirus type 16 (HPV16), UniProt P03129 2-98).
T1 construct: Recombinant His fusion protein coated on ELISA plates; also called HPV16E7重组蛋白; His-HPV16E7重组蛋白; not shown: His tag
T1 sequence: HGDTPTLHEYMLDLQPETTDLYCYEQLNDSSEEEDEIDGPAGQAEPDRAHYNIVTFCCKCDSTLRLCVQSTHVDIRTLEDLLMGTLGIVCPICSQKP
As to the kind of experiment: indirect ELISA, coated His-HPV16E7. On the technique in general: An ELISA detects its analyte on a solid surface through an enzyme-linked reagent.

The target in experiment [2] is T2, CaSki细胞表达的HPV16E7蛋白 (human papillomavirus type 16 (HPV16), UniProt P03129 2-98).
T2 construct: Endogenous, intracellular E7 of CaSki cells, tested in fixed, permeabilised cells (ICC); also called 表达HPV16E7的CaSki细胞; HPV16E7阳性细胞CaSki
T2 sequence: T1 sequence
As to the kind of experiment: immunocytochemistry on fixed, permeabilised CaSki cells.

Experiment [3] has as its target T3, His-HPV18E7融合蛋白 (human papillomavirus type 18 (HPV18), UniProt P06788 1-105).
T3 construct: Recombinant His fusion protein coated on ELISA plates; also called HPV18E7重组蛋白; His-HPV18E7重组蛋白; not shown: His tag
T3 chain: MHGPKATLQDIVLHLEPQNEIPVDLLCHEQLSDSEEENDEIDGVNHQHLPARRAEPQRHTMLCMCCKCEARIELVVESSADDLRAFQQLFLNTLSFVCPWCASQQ
Briefly: ELISA by the method of Beatty et al.: His-HPV18E7 coated at 8, 2, 0.5 and 0.125 μg/ml, MAB-F2 in two-fold dilutions from 8 μg/ml, mean of six K values.

B1: HPV18E7单克隆抗体MAB-F2 (antibody, V domains shown)
VH: LVQSGGGSVKPGGSLKLSCAASGFTFNRYDMSWFRQSPEKRLEWVAEIRNDGSKTHYSDTVTGRFTISRDNAKNTLYLEMSSLRSEDTAMYYCTRDSYGTVFAYWGQGTLVTVSA
VL: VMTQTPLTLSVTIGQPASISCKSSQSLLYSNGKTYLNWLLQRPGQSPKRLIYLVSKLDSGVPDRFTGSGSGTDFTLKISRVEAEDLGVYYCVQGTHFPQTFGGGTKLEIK
notes: also called mAb MAB-F2; anti-HPV18E7单抗MAB-F2
As usually defined, the Kd is the equilibrium constant for the complex coming apart. High values mean a looser complex, low ones a tighter complex. For B1, the binding result is recorded as “no binding (tested: MAB-F2 1μg/ml; antigen coated at 2μg/ml)” in experiment [1] and “no binding (tested: MAB-F2 5μg/ml)” in experiment [2]. Also, binding in experiment [3] was put at a Kd of 2.67 nM.

These data come from patent publication CN105524166A (ATTOBIO (SUZHOU) CO LTD, dated 2016).
